Test results published in US7981863B2, “Treatment of Parkinson's disease with PDGF” (Neuronova AB, priority 2001, dated 2011).

System: MPTP-lesioned mice
Test: MPTP-induced neuronal loss in substantia nigra pars compacta, intraventricular infusion
Format: in vivo, mouse
Details: for Total number of tyrosine hydroxylase neurons in the bilateral substantia nigra pars compacta: PDGF-BB intraventricularly 0.1 μg/h/kg for three days, two months later, Mean ± S.E.M
Experimental: Ten-week old male C57B1/6 mice (25 g, B&K Universal, Stockholm, Sweden).
PDGF-BB (Sigma) was administered directly into the right lateral ventricle of the brain using osmotic pumps (Alza 1003D, delivery of 1.0 μl/h for three days) and brain infusion kits. The drug solution was prepared as follows: 10 μg PDGF-BB was dissolved in 10 μl 1M HAc, after which pH was adjusted to 7.4 by adding 10 μl NaOH. A buffer was added (100 ml 0.01M PBS containing 5 mg/ml BSA and 20 mM Hepes) to a final volume of 4,000 μl. Each minipump was connected to a brain infusion needle, which was stereotaxically placed in the right lateral ventricle of the mouse brain in deeply anesthetized mice (chloral hydrate 60 mg/kg intraperitoneal). The pump was placed subcutaneously in the neck. The delivery rate of PDGF-BB was 0.1 μg/h/kg body weight. ^3H-thymidine (6.7 Ci/ml, NEN) was given for three days via another Alzet pump which was placed intraperitoneally.
One hour after the pumps were inserted, the neurotoxin 1-methyl-4-phenyl-1,2,3,6-tetrahydropyridine (MPTP HCl, Sigma) was given subcutaneously (40 mg/kg).
Two months later, animals were anesthetized with choral hydrate (60 mg/kg ip) and sacrificed by intracardial infusion of fixative (4% paraformaldehyde in 0.1 M phosphate buffered saline (PBS) containing 0.4% picric acid. After dissection, postfixation in the same fixative continued for 1.5 h followed by cryoprotection. After dissection of the midbrain, the two sides of the brain were separated with a cut along the ventro-dorsal midline and the tissue was postfixed in the same solution and cryoprotected in sucrose. Cryostat sections were prepared as follows: a randomly chosen half-brain was cut into 40 μm thick sections through the full rostro-caudal extension of substantia nigra pars compacta. A randomly chosen series of every 6th section was taken to perform free-floating immunohistochemistry using a polyclonal anti-tyrosine hydroxylase antibody (diluted 1:400, Pel-Freez) in order to identify dopaminergic neurons in the tissue. To visualize the antibody, the avidin-biotin peroxidase kit (Vector) with 0.03% DAB as chromagen was used adding 0.01% H2O2. Cresyl violet was employed to identify the nucleolus, Nissl substance and glia cells (Chan et al., 1997; Walters et al., 1999). The other half of the brain was sectioned in 10 μm thick sections on glass and a randomly chosen series of every 6th section was immunohistochemically stained for tyrosine hydroxylase in dopaminergic neurons as previously described. To detect incorporation of the ^3H-thymidine nucleotide in brain cells, the sampled slides were dipped in NTB2 nuclear track emulsion (Kodak) and stored in light-tight boxes at −20° C. for four weeks. […]

B1: PDGF-BB: human recombinant PDGF-BB, platelet derived growth factor B-chain homodimer (protein)
chain: SLGSLTIAEPAMIAECKTRTEVFEISRRLIDRTNANFLVWPPCVEVQRCSGCCNNRNVQCRPTQVQLRPVQVRKIEIVRKKPIFKKATVTLEDHLACKCETVAAARPVT
cell number in the substantia nigra (MPTP lesioned mice after infusion of PDGF): double | Total number of tyrosine hydroxylase neurons in the bilateral substantia nigra pars compacta (MPTP-lesioned (40 mg/kg s.c.)): 10,000 ± 200 | MPTP-induced loss of tyrosine hydroxylase positive nerve cells (after an MPTP lesion): completely counteracted | Total number of tyrosine hydroxylase neurons in the bilateral substantia nigra pars compacta (no MPTP lesion): 12,300 ± 300
